Experimental findings from paper PMC9033776, “Chromatin profiling in human neurons reveals aberrant roles for histone acetylation and BET family proteins in schizophrenia” (Nature Communications, 2022) are described below.

The assay has as its target T1, Bromo1-linker(GGS)5-Bromo2 of BRD4 (UniProt O60885 54-168; O60885 351-457).
T1 construct: BRD4 bromo1; (GGS)5 linker that replaces the stretch between the two bromodomains; BRD4 bromo2; the limits of the two domains in the fusion are not restated; also called Bromo1-linker-Bromo2 of BRD4; source: E. coli, purified using the same procedure as the single bromodomains
As to the kind of experiment: ITC; 3 mM H2A.Z peptides titrated into 0.3 mM bromodomains; 25 °C; 20 mM Hepes-Na pH 7.5, 100 mM NaCl; One Set of Binding Sites model. To be noted: both partners purified. For orientation: ITC needs no label: the signal is the heat of the interaction.

Where no end group is shown, it is not given here.

With AGGK(Ac)AGK(Ac)DSGK(Ac)AKTKC (also: cross-linked via C-terminal cysteine) [H2A.ZK4ac7ac11ac peptides cross-linked by a C-terminal cysteine], the “fold stronger binding than Bromo1 of BRD4” value came to 6.49 fold and the “fold stronger binding than Bromo2 of BRD4” value was 1.7 fold.
